Measured values reported in patent publication CN115353562A.

Key:
[1] = biological target: H5N1 HA蛋白(BIOHJSW，货号orb-EHJ075488) (H5N1 avian influenza virus); experiment: indirect ELISA, coated HA 5 μg/mL, hybridoma supernatant
H3 HA = experiment: as above
H1 HA = experiment: as above
[2] = biological target: H5N1 HA蛋白(BIOHJSW，货号orb-EHJ075488) (H5N1 avian influenza virus)

B1: H5-3F5单克隆抗体 (antibody, V domains shown)
VH: EVQLVESGGGLVQPGGSLRLSCAASGFSLSEAVSGWVRQAPGKGLEWVGVCNNRIPFYLTWCKLFRFTISKDNSKNTLYLQMNSLRAEDTAVYYCARQRSYCNFQPHPNGWGQGTLVTVSS
VL: AYQMTQSPSSVSASVGDRVTITCGQNMMWIPAWLWYQQKPGKAPKLLIYETNGEHYGVPSRFSGSGSGTDFTLTISSLQPEDFATYYCMMMNARKSLQATKFGGGTKVEIK
**Q.** How did the OD450 [1] turn out when B1 was run?
**A.** Its OD450 is 2.62 OD450.

**Q.** What about the OD450 (H3 HA) of the same binder?
**A.** The OD450 was 0.412 OD450.

**Q.** And the OD450 (H1 HA)?
**A.** The OD450 was 0.231 OD450.

**Q.** What about the Kd [2] of the same binder?
**A.** Its Kd is 0.407 nM.
